The assay concerns the target CRBN (Homo sapiens, UniProt Q96SW2). Description: Denaturing immunoblot with CGN-6-4-5. The class given is binding. Further details: endogenous in cells; host or cells: DF15 myeloma cells (endogenous); HEK293 cells expressing recombinant flag-tagged CRBN on the same blot. As for the experimental part:
CGN-6-4-5 was diluted 1:10,000 dilution in 0.1% Tween PBS buffer. An exemplary immunoblot with myeloma cells containing endogenous CRBN (DF15), DF15R with no CRBN and HEK293 cells expressing recombinant flag-tagged CRBN is shown in FIG. 38. Peptide neutralization was performed by combining antibody with a five-fold (by weight) excess of blocking peptide in 500 μl PBS and incubating with constant rotation at room temperature for 2 hours.
(A western blot detects proteins with antibodies after separation by electrophoresis.)

Sequence of CRBN (Q96SW2 whole entry): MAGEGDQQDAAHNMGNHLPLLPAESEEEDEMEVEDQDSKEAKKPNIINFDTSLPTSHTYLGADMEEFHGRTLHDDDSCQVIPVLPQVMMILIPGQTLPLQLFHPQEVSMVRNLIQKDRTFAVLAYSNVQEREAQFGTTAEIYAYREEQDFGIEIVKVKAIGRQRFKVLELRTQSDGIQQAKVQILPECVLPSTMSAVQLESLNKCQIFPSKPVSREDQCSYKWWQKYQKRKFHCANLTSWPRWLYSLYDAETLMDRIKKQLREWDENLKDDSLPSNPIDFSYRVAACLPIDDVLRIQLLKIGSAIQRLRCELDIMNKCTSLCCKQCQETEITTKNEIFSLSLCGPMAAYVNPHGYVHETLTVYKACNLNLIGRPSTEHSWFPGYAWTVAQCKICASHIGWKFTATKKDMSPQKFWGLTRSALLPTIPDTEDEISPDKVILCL

B1: CGN-6-4-5: rabbit monoclonal anti-CRBN antibody, heavy chain SEQ ID NO:9, light chain SEQ ID NO:11 (antibody)
heavy: METGLRWLLLVAVLKGVQCQSVEESGGRLVTPGTPLTLTCTVSGFSLSRYGVSWVRQAPGKGLEHIGYIYSDPGMTFYATWAKGRFTISKTSSTTVDLKMTSPTIEDTATYFCARGTPLASYSTWGPGTLVTISLGQPKAPSVFPLAPCCGDTPSSTVTLGCLVKGYLPEPVTVTWNSGTLTNGVRTFPSVRQSSGLYSLSSVVSVTSSSQPVTCNVAHPATNTKVDKTVAPSTCSKPTCPPPELLGGPSVFIFPPKPKDTLMISRTPEVTCVVVDVSQDDPEVQFTWYINNEQVRTARPPLREQQFNSTIRVVSTLPIAHQDWLRGKEFKCKVHNKALPAPIEKTISKARGQPLEPKVYTMGPPREELSSRSVSLTCMINGFYPSDISVEWEKNGKAEDNYKTTPAVLDSDGSYFLYSKLSVPTSEWQRGDVFTCSVMHEALHNHYTQKSISRSPGK
light: MDTRAPTQLLGLLLLWLPGATFAQVLTQTPASVSAAVGGTVTINCQSSENIYKNNYLSWFQQKPGQPPKLLIYQASTLASGVPSRFKGSGSGTRFSLTISDLECDDAATYYCAGGYSGNIFTFGGGTEVVVKGDPVAPTVLIFPPAADQVATGTVTIVCVANKYFPDVTVTWEVDGTTQTTGIENSKTPQNSADCTYNLSSTLTLTSTQYNSHKEYTCKVTQGTTSVVQSFNRGDC
With B1, the “recognition of CRBN on denaturing immunoblots” value is reported as “specifically recognizes the full-length 51 kDa human CRBN protein”.

The values are drawn from patent publication US10047151B2, “Methods for the treatment of cancer and inflammatory diseases using cereblon as a predictor” (Celgene Corporation, priority 2011, dated 2018).
